Several values for one entry are separate records, joined by “and”; a condition that tells them apart may be missing. Equal values may be shown once.
Experiments:
SEC = molecular target: the molecule itself; experiment: SEC
native gel or EMSA = molecular target: the molecule itself; experiment: native gel or EMSA

Protein | stoichiometry N (SEC) | stoichiometry N (native gel or EMSA)
WT Hsp78 expressed and affinity purified from E. coli (natural protein) not shown | 2 and 3 | 
Hsp78-6xHis (wild-type Hsp78 with a C-terminal 6x polyhistidine-tag) (natural protein) not shown |  | 3 and 6

From publication doi:10.1101/2022.01.28.478199 (bioRxiv, 2022)
